# From patent US20240033291A1
# Legend:
# [1] = molecular target: mesothelin on the cell membrane of the pancreatic cancer cell line AsPC-1 (mesothelin-overexpressing cell line) (human) (UniProt Q13421); assay: flow cytometry, phage on AsPC-1 cells, anti-M13-FITC
# [2] = molecular target: mesothelin on the cell membrane of the pancreatic cancer cell line AsPC-1 (mesothelin-overexpressing cell line) (human) (UniProt Q13421); assay: flow cytometry, phage on AsPC-1 cells against K562 control cells, anti-M13-FITC
binder,measurement,setting,value
"MSLN3 phage clone (scFv displayed on phage, KBIO human synthetic scFv phage display library KscFv-I) (scFv, V domains shown, not shown: small tags and cut ends; large carriers) VH: EVQLVESGGGLVQPGGSLRLSCAASGFTFSDYAMSWVRQAPGKGLEWVSAISSSGGTTYYADSVKGRFTISRDNSKNTLYLQMNSLRAEDTAVYYCAKEEEGEWREYFDVWGQGTLVTVSS VL: DIQMTQSPSSLSASVGDRVTITCRASQSISSYLNWYQQKPGKAPKLLIYATSTLQSGVPSRFSGSGSGTDFTLTISSLQPEDFATYYCQQSYTFPYTFGQGTKVEIK",relative peak shift value,[1],> 3%
same,relative peak shift value,[2],23.8%
